Laboratory results published in patent US20260242735A1 (UNIVERSIT T BASEL, published 2026).

Legend:
human CD33 W22R = human CD33 W22R (human, UniProt P20138 18-364); assay: flow cytometry, mutant on cells, IgG
Method: (§1) An alanine scan on human CD33 was performed to the determine the residues on CD33 that are involved in binding to the antibodies investigated. […] Briefly, a mutation library of CD33 was created by high-throughput, site-directed mutagenesis. Each residue was individually mutated to alanine, with alanine codons mutated to serine. The mutant library was arrayed in 384-well microplates and transiently transfected into HEK293-T. Following transfection, cells were incubated with the indicated antibodies (IgG or Fab) at concentrations pre-determined using an independent immunofluorescence titration curve on wild type CD33. […] Binding of each antibody to each mutant clone was determined in duplicates. For each point, background fluorescence was subtracted from the raw data, which were then normalized to antibody reactivity with wild type CD33.
(§2) Antibodies were screened for binding to the human CD33 variants in IgG format. […] For each mutation, background fluorescence was subtracted from the raw data, which were then normalized to antibody reactivity with wild-type CD33.

human CD33 W22T = human CD33 W22T (human, UniProt P20138 18-364); assay: flow cytometry, mutant on cells, IgG
Method: as §1, §2

human CD33 L23M = human CD33 L23M (human, UniProt P20138 18-364); assay: flow cytometry, mutant on cells, IgG
Method: as §1, §2

human CD33 F21V = human CD33 F21V (human, UniProt P20138 18-364); assay: flow cytometry, mutant on cells, IgG
Sequence of human CD33 F21V (P20138 18-364 F21V limits assumed): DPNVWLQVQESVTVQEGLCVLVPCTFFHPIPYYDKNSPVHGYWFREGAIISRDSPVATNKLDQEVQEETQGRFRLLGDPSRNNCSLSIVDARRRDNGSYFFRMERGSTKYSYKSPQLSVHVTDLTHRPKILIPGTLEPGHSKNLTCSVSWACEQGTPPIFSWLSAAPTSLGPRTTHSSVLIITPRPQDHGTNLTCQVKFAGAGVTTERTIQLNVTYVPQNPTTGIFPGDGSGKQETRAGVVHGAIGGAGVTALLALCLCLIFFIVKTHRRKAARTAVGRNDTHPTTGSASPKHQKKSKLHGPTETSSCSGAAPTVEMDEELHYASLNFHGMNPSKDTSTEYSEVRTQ
Method: as §1, §2

human CD33 V25S = human CD33 V25S (human, UniProt P20138 18-364); assay: flow cytometry, mutant on cells, IgG
Sequence of human CD33 V25S (P20138 18-364 V25S limits assumed): as the sequence (P20138 18-364 F21V limits assumed) above, with V4F, V8S counted along it
Method: as §1, §2

human CD33 Q24R [1] = biological target: human CD33 Q24R (human, UniProt P20138 18-364); assay: flow cytometry, mutant on cells, IgG
Target sequence in this assay (P20138 18-364 Q24R limits assumed): as the sequence (P20138 18-364 F21V limits assumed) above, with V4F, Q7R counted along it
Method: as §1, §2

human CD33 N20V [2] = biological target: human CD33 N20V (human, UniProt P20138 18-364); assay: flow cytometry, mutant on cells, IgG
Target sequence in this assay (P20138 18-364 N20V limits assumed): as the sequence (P20138 18-364 F21V limits assumed) above, with N3V, V4F counted along it
Method: as §1, §2

human CD33 W22N = human CD33 W22N (human, UniProt P20138 18-364); assay: flow cytometry, mutant on cells, IgG
Method: as §1, §2

human CD33 V25L [3] = biological target: human CD33 V25L (human, UniProt P20138 18-364); assay: flow cytometry, mutant on cells, IgG
Target sequence in this assay (P20138 18-364 V25L limits assumed): as the sequence (P20138 18-364 F21V limits assumed) above, with V4F, V8L counted along it
Method: as §1, §2

human CD33 P19W = human CD33 P19W (human, UniProt P20138 18-364); assay: flow cytometry, mutant on cells, IgG
Sequence of human CD33 P19W (P20138 18-364 P19W limits assumed): as the sequence (P20138 18-364 F21V limits assumed) above, with P2W, V4F counted along it
Method: as §1, §2

human CD33 N20K = human CD33 N20K (human, UniProt P20138 18-364); assay: flow cytometry, mutant on cells, IgG
Method: as §1, §2

human CD33 F44E = human CD33 F44E (human, UniProt P20138 18-364); assay: flow cytometry, mutant on cells, IgG
Sequence of human CD33 F44E (P20138 18-364 F44E limits assumed): as the sequence (P20138 18-364 F21V limits assumed) above, with V4F, F27E counted along it
Method: as §1, §2

human CD33 F44D = human CD33 F44D (human, UniProt P20138 18-364); assay: flow cytometry, mutant on cells, IgG
Sequence of human CD33 F44D (P20138 18-364 F44D limits assumed): as the sequence (P20138 18-364 F21V limits assumed) above, with V4F, F27D counted along it
Method: as §1, §2

human CD33 Q24V = human CD33 Q24V (human, UniProt P20138 18-364); assay: flow cytometry, mutant on cells, IgG
Method: as §1, §2

human CD33 Q24H = human CD33 Q24H (human, UniProt P20138 18-364); assay: flow cytometry, mutant on cells, IgG
Sequence of human CD33 Q24H (P20138 18-364 Q24H limits assumed): as the sequence (P20138 18-364 F21V limits assumed) above, with V4F, Q7H counted along it
Method: as §1, §2

human CD33 N20T [4] = biological target: human CD33 N20T (human, UniProt P20138 18-364); assay: flow cytometry, mutant on cells, IgG
Target sequence in this assay (P20138 18-364 N20T limits assumed): as the sequence (P20138 18-364 F21V limits assumed) above, with N3T, V4F counted along it
Method: as §1, §2

human CD33 F44Q = human CD33 F44Q (human, UniProt P20138 18-364); assay: flow cytometry, mutant on cells, IgG
Method: as §1, §2

human CD33 F44V = human CD33 F44V (human, UniProt P20138 18-364); assay: flow cytometry, mutant on cells, IgG
Sequence of human CD33 F44V (P20138 18-364 F44V limits assumed): as the sequence (P20138 18-364 F21V limits assumed) above, with V4F, F27V counted along it
Method: as §1, §2

human CD33 F44L = human CD33 F44L (human, UniProt P20138 18-364); assay: flow cytometry, mutant on cells, IgG
Method: as §1, §2

human CD33 N20T [5] = biological target: human CD33 N20T (human, UniProt P20138 18-364); assay: flow cytometry, HEK293-T, IgG;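 note: CD33 point mutants transiently expressed, antibody binding measured by fluorescence in duplicate, background subtracted and scaled to binding on wild-type CD33 as 100%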
Target sequence in this assay (P20138 18-364 N20T limits assumed): as the sequence (P20138 18-364 F21V limits assumed) above, with N3T, V4F counted along it

human CD33 N20Y = human CD33 N20Y (human, UniProt P20138 18-364); assay: flow cytometry, HEK293-T, IgG;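 note: CD33 point mutants transiently expressed, antibody binding measured by fluorescence in duplicate, background subtracted and scaled to binding on wild-type CD33 as 100%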
human CD33 N20Q = human CD33 N20Q (human, UniProt P20138 18-364); assay: flow cytometry, HEK293-T, IgG;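 note: CD33 point mutants transiently expressed, antibody binding measured by fluorescence in duplicate, background subtracted and scaled to binding on wild-type CD33 as 100%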
human CD33 W22P = human CD33 W22P (human, UniProt P20138 18-364); assay: flow cytometry, HEK293-T, IgG;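 note: CD33 point mutants transiently expressed, antibody binding measured by fluorescence in duplicate, background subtracted and scaled to binding on wild-type CD33 as 100%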
human CD33 D18N = human CD33 D18N (human, UniProt P20138 19-364); assay: flow cytometry, HEK293-T, IgG
human CD33 N20W = human CD33 N20W (human, UniProt P20138 18-364); assay: flow cytometry, HEK293-T, IgG
human CD33 V25L [6] = biological target: human CD33 V25L (human, UniProt P20138 18-364); assay: flow cytometry, HEK293-T, IgG
Target sequence in this assay (P20138 18-364 V25L limits assumed): as the sequence (P20138 18-364 F21V limits assumed) above, with V4F, V8L counted along it

human CD33 N20P = human CD33 N20P (human, UniProt P20138 18-364); assay: flow cytometry, HEK293-T, IgG
human CD33 F21S = human CD33 F21S (human, UniProt P20138 18-364); assay: flow cytometry, HEK293-T, IgG
human CD33 W22S = human CD33 W22S (human, UniProt P20138 18-364); assay: flow cytometry, HEK293-T, IgG
human CD33 N20V [7] = biological target: human CD33 N20V (human, UniProt P20138 18-364); assay: flow cytometry, HEK293-T, IgG
Target sequence in this assay (P20138 18-364 N20V limits assumed): as the sequence (P20138 18-364 F21V limits assumed) above, with N3V, V4F counted along it

human CD33 V25M = human CD33 V25M (human, UniProt P20138 18-364); assay: flow cytometry, HEK293-T, IgG
human CD33 Q24R [8] = biological target: human CD33 Q24R (human, UniProt P20138 18-364); assay: flow cytometry, HEK293-T, IgG
Target sequence in this assay (P20138 18-364 Q24R limits assumed): as the sequence (P20138 18-364 F21V limits assumed) above, with V4F, Q7R counted along it

human CD33 Q24I = human CD33 Q24I (human, UniProt P20138 18-364); assay: flow cytometry, HEK293-T, IgG
human CD33 P19K = human CD33 P19K (human, UniProt P20138 18-364); assay: flow cytometry, HEK293-T, IgG
human CD33 V25I = human CD33 V25I (human, UniProt P20138 18-364); assay: flow cytometry, HEK293-T, IgG
human CD33 Q24N = human CD33 Q24N (human, UniProt P20138 18-364); assay: flow cytometry, HEK293-T, IgG
human CD33 Q24L = human CD33 Q24L (human, UniProt P20138 18-364); assay: flow cytometry, HEK293-T, IgG

Sequence of human CD33 W22R (P20138 18-364 W22R limits assumed): as the sequence (P20138 18-364 F21V limits assumed) above, with V4F, W5R counted along it
Sequence of human CD33 W22T (P20138 18-364 W22T limits assumed): as the sequence (P20138 18-364 F21V limits assumed) above, with V4F, W5T counted along it

| Mean % WT Binding (human CD33 W22R) [% WT binding] | Mean % WT Binding (human CD33 W22T) [% WT binding] | Mean % WT Binding (human CD33 L23M) [% WT binding] | Mean % WT Binding (human CD33 F21V) [% WT binding] | Mean % WT Binding (human CD33 V25S) [% WT binding] | Mean % WT Binding (human CD33 Q24R [1]) [% WT binding] | Mean % WT Binding (human CD33 N20V [2]) [% WT binding] | Mean % WT Binding (human CD33 W22N) [% WT binding] | Mean % WT Binding (human CD33 V25L [3]) [% WT binding] | Mean % WT Binding (human CD33 P19W) [% WT binding] | Mean % WT Binding (human CD33 N20K) [% WT binding] | Mean % WT Binding (human CD33 F44E) [% WT binding] | Mean % WT Binding (human CD33 F44D) [% WT binding] | Mean % WT Binding (human CD33 Q24V) [% WT binding] | Mean % WT Binding (human CD33 Q24H) [% WT binding] | Mean % WT Binding (human CD33 N20T [4]) [% WT binding] | Mean % WT Binding (human CD33 F44Q) [% WT binding] | Mean % WT Binding (human CD33 F44V) [% WT binding] | also measured | Binder |
| --- | --- | --- | --- | --- | --- | --- | --- | --- | --- | --- | --- | --- | --- | --- | --- | --- | --- | --- | --- |
| 114 | 103 | 92.7 | 118 | 106 | 98.6 | 118 | 100 | 95 | 82.8 | 102 | 112 | 110 | 81.5 | 93.2 | 92.1 | 102 | 96.6 | Mean % WT Binding (human CD33 F44L): 100 % WT binding | Refmab #4 (antibody, human IgG1, V domains shown, Tested in IgG format; human IgG1 Fc silent (PG-LALA)) VH: QVQLVQSGAEVKKPGESVKVSCKASGYTFTNYGMNWVKQAPGQGLEWMGWINTYTGEPTYADKFQGRVTMTTDTSTSTAYMEIRNLGGDDTAVYYCARWSWSDGYYVYFDYWGQGTSVTVSS VL: DIVMTQSPDSLTVSLGERTTINCKSSQSVLDSSTNKNSLAWYQQKPGQPPKLLLSWASTRESGIPDRFSGSGSGTDFTLTIDSPQPEDSATYYCQQSAHFPITFGQGTRLEIK |
| – | – | – | – | – | – | – | – | – | – | – | – | – | – | – | – | – | – | Mean % WT Binding (human CD33 N20T [5]): 106 % WT binding; Mean % WT Binding (human CD33 N20Y): 28 % WT binding; Mean % WT Binding (human CD33 N20Q): 97.2 % WT binding; Mean % WT Binding (human CD33 W22P): 1.8 % WT binding; Mean % WT Binding (human CD33 D18N): 32.2 % WT binding; Mean % WT Binding (human CD33 N20W): 50.3 % WT binding; Mean % WT Binding (human CD33 V25L [6]): 104 % WT binding; Mean % WT Binding (human CD33 N20P): 97.2 % WT binding; Mean % WT Binding (human CD33 F21S): 115 % WT binding; Mean % WT Binding (human CD33 W22S): 6.7 % WT binding; Mean % WT Binding (human CD33 N20V [7]): 96.9 % WT binding; Mean % WT Binding (human CD33 V25M): 68.6 % WT binding; Mean % WT Binding (human CD33 Q24R [8]): 86.2 % WT binding; Mean % WT Binding (human CD33 Q24I): 89.9 % WT binding; Mean % WT Binding (human CD33 P19K): 85.4 % WT binding; Mean % WT Binding (human CD33 V25I): 106 % WT binding; Mean % WT Binding (human CD33 Q24N): 95.4 % WT binding; Mean % WT Binding (human CD33 Q24L): 98.9 % WT binding | Refmab #6 (antibody, human IgG1, V domains shown, tested in IgG format) VH: QVQLQQPGAEVVKPGASVKMSCKASGYTFTSYYIHWIKQTPGQGLEWVGVIYPGNDDISYNQKFQGKATLTADKSSTTAYMQLSSLTSEDSAVYYCAREVRLRYFDVWGQGTTVTVSS VL: EIVLTQSPGSLAVSPGERVTMSCKSSQSVFFSSSQKNYLAWYQQIPGQSPRLLIYWASTRESGVPDRFTGSGSGTDFTLTISSVQPEDLAIYYCHQYLSSRTFGQGTKLEIK |
| 115 | 103 | 107 | 117 | 110 | 96.8 | 116 | 107 | 109 | 88.3 | 103 | 1.7 | 2 | 99.3 | 101 | 116 | 0.5 | 2.3 | – | Refmab #2 (antibody, human IgG1, V domains shown, Tested in IgG format; human IgG1 Fc silent (PG-LALA)) VH: QVQLVQSGAEVKKPGSSVKVSCKASGGTFSDYAISWVRQAPGQGLEWMGRIIPILGVADYAQKFQGRVTITADKSTRTAYMELSSLRSEDTAVYYCARNWADAFDIWGQGTMVTVSS VL: DIQLTQSPSSLSASVGDRVTITCRASQGISSVLAWYQQKPGKAPKLLIYDASSLESGVPSRFSGSGSGTDFTLTISSLQPEDFATYYCQQFDSSITFGQGTKLEIK |
